Data on 2 molecules can be found in patent US20200010571A1 (Janssen / Centocor, published 2020).

Test [1] deals with T1, human IL-17A (recombinant) (human, UniProt Q16552 24-155). The experiment in a line: cell-based or functional assay.
Test [2] has as its target T2, recombinant human IL-17A/F heterodimer (human, UniProt Q16552 24-155; Q96PD4 31-163). In words: cell-based or functional assay.
Test [3] has as its target T3, cynomolgus IL-17A (cynomolgus, UniProt Q16552 24-155 (human entry), limits assumed).
T3 chain: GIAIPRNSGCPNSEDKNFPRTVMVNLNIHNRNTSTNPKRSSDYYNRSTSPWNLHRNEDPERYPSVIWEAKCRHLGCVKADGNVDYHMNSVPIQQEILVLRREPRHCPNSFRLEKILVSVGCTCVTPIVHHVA
The experiment in a line: cell-based or functional assay.

The target in test [4] is T1, human IL-17A (recombinant). The experiment in a line: cell-based or functional assay. The source holds these as a separate data set.
Test [5] has as its target T1, human IL-17A (recombinant). In words: competition ELISA: biotinylated rhIL-17A binding to plate-coated rhIL-17RA-Fc; Experiment 2; 95% CI 0.04003-0.04542.
Test [6] addresses T2, recombinant human IL-17A/F heterodimer. In words: cell-based or functional assay. This is another data set of the same source.
Test [7] concerns the target T1, human IL-17A (recombinant). In words: competition ELISA: biotinylated rhIL-17A binding to plate-coated rhIL-17RA-Fc; Experiment 1; 95% CI 0.03759-0.04316.
Test [8] has as its target T1, human IL-17A (recombinant). In words: cell-based or functional assay. The source holds these as a separate data set.
In test [9] the target is T1, human IL-17A (recombinant). In words: cell-based or functional assay. The source holds these as a separate data set.
Test [10] addresses T1, human IL-17A (recombinant). In words: competition ELISA: biotinylated rhIL-17A binding to plate-coated rhIL-17RA-Fc; Experiment 3; 95% CI 0.07179-0.08047.
Test [11] concerns the target T3, cynomolgus IL-17A. In words: cell-based or functional assay.
In test [12] the target is T1, human IL-17A (recombinant). In words: competition ELISA: biotinylated rhIL-17A binding to plate-coated rhIL-17RA-Fc; Experiment 1; 95% CI 0.03924-0.04274.
For test [13], the target named is T1, human IL-17A (recombinant). In words: competition ELISA: biotinylated rhIL-17A binding to plate-coated rhIL-17RA-Fc; Experiment 3; 95% CI 0.06727-0.07636.
In test [14] the target is T1, human IL-17A (recombinant). The experiment in a line: competition ELISA: biotinylated rhIL-17A binding to plate-coated rhIL-17RA-Fc; Experiment 2; 95% CI 0.02829-0.03326.

B1: mAb 4782 (parental anti-IL-17A antibody, IgG1, F405L) (antibody)
heavy: not shown
light: QSVLTQPPSVSVAPGQTARISCSGDNLGDKYANWYQQKPGQAPVLVIYDDIDRPSGIPERFSGSNSGNTATLTISGTQAEDEADYYCGSYDFFLGMIVFGGGTKLTVLGQPKAAPSVTLFPPSSEELQANKATLVCLISDFYPGAVTVAWKADSSPVKAGVETTTPSKQSNNKYAASSYLSLTPEQWKSHRSYSCQVTHEGSTVEKTVAPTECS
As for B1, in test [1], the “IC50 (µg/mL); Inhibition of native IL-17A mediated IL-6 production by NHDF; Experiment 1” value turned out to be 0.0254 µg/mL, the “IC50 (µg/mL); Inhibition of native IL-17A mediated IL-6 production by NHDF; Experiment 2” value came out at 0.0336 µg/mL and the “IC50 (µg/mL); Inhibition of native IL-17A mediated IL-6 production by NHDF; Experiment 3” value is 0.0242 µg/mL. In addition, in test [2], the “IC50 (µg/mL); Inhibition of IL-17A/F mediated IL-6 production by NHDF; Experiment 1” value was 0.714 µg/mL, the “IC50 (µg/mL); Inhibition of IL-17A/F mediated IL-6 production by NHDF; Experiment 2” value was 0.243 µg/mL and the “IC50 (µg/mL); Inhibition of IL-17A/F mediated IL-6 production by NHDF; Experiment 3” value was 0.99 µg/mL. In the test with cynomolgus IL-17A [3], the “IC50 (µg/mL); Inhibition of cyno IL-17A mediated GROα production by NHDF; Experiment 1” value came out at 0.0235 µg/mL, the “IC50 (µg/mL); Inhibition of cyno IL-17A mediated GROα production by NHDF; Experiment 2” value is 0.0466 µg/mL and the “IC50 (µg/mL); Inhibition of cyno IL-17A mediated GROα production by NHDF; Experiment 3” value is 0.0349 µg/mL. Also, in test [4], the “IC50 (nM); Inhibition of rhTNF-α and IL-17 induced IL-6 secretion from RA-FLSs; Donor 1 (ST1320)” value was found to be 0.34 nM; the “IC50 (nM); Inhibition of rhTNF-α and IL-17 induced IL-6 secretion from RA-FLSs; Donor 2 (ST1349)” value is 0.22 nM; the “IC50 (nM); Inhibition of rhTNF-α and IL-17 induced IL-6 secretion from RA-FLSs; Donor 3 (ST1359)” value is 0.25 nM. Also, the concentration for half-maximal inhibition (IC50) in [5] stood at 0.0426 µg/mL. Also, in [6], the “IC50 (µg/mL); Inhibition of IL-17A/F mediated GROα production by NHDF; Experiment 1” value worked out at 0.473 µg/mL, the “IC50 (µg/mL); Inhibition of IL-17A/F mediated GROα production by NHDF; Experiment 2” value was 0.117 µg/mL and the “IC50 (µg/mL); Inhibition of IL-17A/F mediated GROα production by NHDF; Experiment 3” value turned out to be 0.317 µg/mL. In test [7], the half-inhibitory concentration (IC50) was 0.0403 µg/mL. Also, in [8], the “IC50 (µg/mL); Inhibition of native IL-17A mediated GROα production by NHDF; Experiment 1” value is 0.0207 µg/mL, the “IC50 (µg/mL); Inhibition of native IL-17A mediated GROα production by NHDF; Experiment 2” value came to 0.0327 µg/mL and the “IC50 (µg/mL); Inhibition of native IL-17A mediated GROα production by NHDF; Experiment 3” value turned out to be 0.0236 µg/mL. Besides, in test [9], the “IC50 (nM); Inhibition of rhTNF-α and IL-17A induced GROα secretion from RA-FLSs from three donors; Donor 1 (ST1320)” value was determined as 0.25 nM; the “IC50 (nM); Inhibition of rhTNF-α and IL-17A induced GROα secretion from RA-FLSs from three donors; Donor 2 (ST1349)” value amounted to 0.12 nM; the “IC50 (nM); Inhibition of rhTNF-α and IL-17A induced GROα secretion from RA-FLSs from three donors; Donor 3 (ST1359)” value came out at 0.14 nM. For the same molecule, the IC50 in test [10] stood at 0.076 µg/mL. Besides, in the test with cynomolgus IL-17A [11], the “IC50 (µg/mL); Inhibition of cyno IL-17A mediated IL-6 production by NHDF; Experiment 2” value was found to be 0.0437 µg/mL and the “IC50 (µg/mL); Inhibition of cyno IL-17A mediated IL-6 production by NHDF; Experiment 3” value turned out to be 0.0248 µg/mL.

B2: mAb 7206 (parental anti-IL-17A antibody, IgG1, YTE) (antibody)
heavy: QVQLLESGGGLVQPGGSLRLSCAASGFTFSSYAMSWVRQAPGKGLEWVSTISLTSGFTYYADSVKGRFTISRDNSKNTLYLQMNSLRAEDTAVYYCARQLTLDVWGQGTLVTVSSASTKGPSVFPLAPSSKSTSGGTAALGCLVKDYFPEPVTVSWNSGALTSGVHTFPAVLQSSGLYSLSSVVTVPSSSLGTQTYICNVNHKPSNTKVDKKVEPKSCDKTHTCPPCPAPELLGGPSVFLFPPKPKDTLYITREPEVTCVVVDVSHEDPEVKFNWYVDGVEVHNAKTKPREEQYNSTYRVVSVLTVLHQDWLNGKEYKCKVSNKALPAPIEKTISKAKGQPREPQVYTLPPSREEMTKNQVSLTCLVKGFYPSDIAVEWESNGQPENNYKTTPPVLDSDGSFLLYSKLTVDKSRWQQGNVFSCSVMHEALHNHYTQKSLSLSPGK
light: B1 light
For the molecule B2, in [1], the “IC50 (µg/mL); Inhibition of native IL-17A mediated IL-6 production by NHDF; Experiment 1” value came out at 0.0214 µg/mL, the “IC50 (µg/mL); Inhibition of native IL-17A mediated IL-6 production by NHDF; Experiment 2” value was determined as 0.0242 µg/mL and the “IC50 (µg/mL); Inhibition of native IL-17A mediated IL-6 production by NHDF; Experiment 3” value came out at 0.0232 µg/mL. Further, in test [2], the “IC50 (µg/mL); Inhibition of IL-17A/F mediated IL-6 production by NHDF; Experiment 1” value came out at 0.344 µg/mL, the “IC50 (µg/mL); Inhibition of IL-17A/F mediated IL-6 production by NHDF; Experiment 2” value worked out at 0.269 µg/mL and the “IC50 (µg/mL); Inhibition of IL-17A/F mediated IL-6 production by NHDF; Experiment 3” value is 0.545 µg/mL. Moreover, the “IC50 (µg/mL); Inhibition of cyno IL-17A mediated GROα production by NHDF; Experiment 3” value with cynomolgus IL-17A [3] was determined as 0.0271 µg/mL. Moreover, the concentration for half-maximal inhibition (IC50) in test [12] came out at 0.041 µg/mL. In test [6], the “IC50 (µg/mL); Inhibition of IL-17A/F mediated GROα production by NHDF; Experiment 1” value came to 0.725 µg/mL, the “IC50 (µg/mL); Inhibition of IL-17A/F mediated GROα production by NHDF; Experiment 2” value came out at 0.393 µg/mL and the “IC50 (µg/mL); Inhibition of IL-17A/F mediated GROα production by NHDF; Experiment 3” value was 0.403 µg/mL. Further, the IC50 in test [13] was 0.0717 µg/mL. In test [8], the “IC50 (µg/mL); Inhibition of native IL-17A mediated GROα production by NHDF; Experiment 1” value was 0.0198 µg/mL, the “IC50 (µg/mL); Inhibition of native IL-17A mediated GROα production by NHDF; Experiment 2” value turned out to be 0.0265 µg/mL and the “IC50 (µg/mL); Inhibition of native IL-17A mediated GROα production by NHDF; Experiment 3” value was found to be 0.0215 µg/mL. Moreover, in [14], the IC50 is 0.0307 µg/mL. Moreover, the “IC50 (µg/mL); Inhibition of cyno IL-17A mediated IL-6 production by NHDF; Experiment 3” value with cynomolgus IL-17A [11] was 0.0326 µg/mL.
